Key:
[1] = molecular target: T1, Redβ single strand annealing protein (bacteriophage λ, UniProt P03698); experiment: SEC-MALS; strands added sequentially, PBS; 358 kDa, n=11.3; EMSA: 10 uM Redβ, 50 uM nt DNA, 37 C, in PBS, or 20 mM Tris-HCl pH 7.5/10 mM NaCl/10 mM MgCl2, or 50 mM ammonium acetate pH 7.0; SEC-MALS: PBS, complexes formed; conditions: protein: recombinant; tags: N-terminal GSH left after thrombin removal of 6xHis; chain copies: 11; blunt
T1 sequence: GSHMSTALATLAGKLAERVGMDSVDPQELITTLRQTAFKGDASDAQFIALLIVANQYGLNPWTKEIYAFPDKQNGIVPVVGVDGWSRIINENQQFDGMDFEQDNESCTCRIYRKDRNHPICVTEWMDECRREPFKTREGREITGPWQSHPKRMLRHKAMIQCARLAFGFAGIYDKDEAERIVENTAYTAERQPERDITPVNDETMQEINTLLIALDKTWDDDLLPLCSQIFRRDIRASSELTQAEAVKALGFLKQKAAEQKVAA

[2] = molecular target: T1, Redβ single strand annealing protein; experiment: EMSA; strands added sequentially, either order; EMSA: 10 uM Redβ, 50 uM nt DNA, 37 C, in PBS, or 20 mM Tris-HCl pH 7.5/10 mM NaCl/10 mM MgCl2, or 50 mM ammonium acetate pH 7.0; SEC-MALS: PBS, complexes formed; conditions: protein: recombinant; tags: N-terminal GSH left after thrombin removal of 6xHis; chain copies: 11; label: 5'-Cy5 on strand 1, 5'-Cy3 on strand 2; 5' overhangs 1 nt (49 bp)
[3] = molecular target: T1, Redβ single strand annealing protein; experiment: SEC-MALS; PBS; 653 kDa, n=21.1; EMSA: 10 uM Redβ, 50 uM nt DNA, 37 C, in PBS, or 20 mM Tris-HCl pH 7.5/10 mM NaCl/10 mM MgCl2, or 50 mM ammonium acetate pH 7.0; SEC-MALS: PBS, complexes formed; conditions: protein: recombinant; tags: N-terminal GSH left after thrombin removal of 6xHis; chain copies: 11
[4] = molecular target: T1, Redβ single strand annealing protein; experiment: native MS; strands added sequentially, 1 uM Redβ; 22 subunits, one copy of each strand; EMSA: 10 uM Redβ, 50 uM nt DNA, 37 C, in PBS, or 20 mM Tris-HCl pH 7.5/10 mM NaCl/10 mM MgCl2, or 50 mM ammonium acetate pH 7.0; SEC-MALS: PBS, complexes formed; conditions: protein: recombinant; tags: N-terminal GSH left after thrombin removal of 6xHis; chain copies: 11; 3' overhang 4 nt on strand 2
[5] = molecular target: T1, Redβ single strand annealing protein; experiment: SEC-MALS; strands added sequentially, PBS; 591 kDa, n=18.2; EMSA: 10 uM Redβ, 50 uM nt DNA, 37 C, in PBS, or 20 mM Tris-HCl pH 7.5/10 mM NaCl/10 mM MgCl2, or 50 mM ammonium acetate pH 7.0; SEC-MALS: PBS, complexes formed; conditions: protein: recombinant; tags: N-terminal GSH left after thrombin removal of 6xHis; chain copies: 11; blunt

B1: dT38:dA38 (dsDNA)
DNA 1: TTTTTTTTTTTTTTTTTTTTTTTTTTTTTTTTTTTTTT
DNA 2: AAAAAAAAAAAAAAAAAAAAAAAAAAAAAAAAAAAAAA
B1: binds [1].

B2: Cy5 50mer:Cy3 50mer (annealed sequentially or pre-formed) (dsDNA)
DNA 1: CCATCCGCAAAAATCGAGCTATGCAGGGCGATTCTGCTCTAAGCCATCCG
DNA 2: GCGGATGGCTTAGAGCAGAATCGCCCTGCATAGCTCGATTTTTGCGGATG
B2: binds [2].

B3: 83- (ssDNA)
DNA: TTGCATATTTAAAACATGTTGAGCTACAGCACCAGATTCAGCAATTAAGCTCTAAGCCATCCGCAAAAATGACCTCTTATCAA
B3: binds [3].

B4: 83-:87+ (dsDNA)
DNA 1: B3 DNA
DNA 2: TTGATAAGAGGTCATTTTTGCGGATGGCTTAGAGCTTAATTGCTGAATCTGGTGCTGTAGCTCAACATGTTTTAAATATGCAATGAC
B4: binds [4].

B5: 83-:83+ (dsDNA)
DNA 1: B3 DNA
DNA 2: TTGATAAGAGGTCATTTTTGCGGATGGCTTAGAGCTTAATTGCTGAATCTGGTGCTGTAGCTCAACATGTTTTAAATATGCAA
B5: binds [5].

From article PMC8034648, “Oligomeric complexes formed by Redβ single strand annealing protein in its different DNA bound states”
